# B1: TPR t1 (parent)
# chain: GACCAAUCUGCCCUCAGAGCUCGAGAACAUCUUCGGAUGCAGAGGAGGCAGGCUUCGGUGGCGCGAUAGCGCCAACGUCCUCAACCUCCAAUGCAUCCCACCACAUGAUGAUGCCUGAAGAGCCUUGGUUUUUUG
# Variants of: B1
# Assay: polymerase ribozyme fitness, log enrichment relative to wild type (log ratio); higher = more active; in vitro selection for triplet polymerase activity
# In short: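 Both subunits of a heterodimeric triplet polymerase ribozyme were given their own mutant library, built by PCR and transcribed. Each library was annealed with a biotinylated primer, the partner subunit and triplets, incubated frozen at −7 °C, and its extended constructs gel-excised, captured on streptavidin beads and amplified by RT-PCR, all in one round done in triplicate. Fitness is the logarithm of genotype enrichment relative to wild-type enrichment, with replicates averaged by inverse-variance weighting. That logarithm is base 2, and Illumina-sequenced genotypes needed ≥10 input reads and ≥1 read per output.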
row,Variant,polymerase ribozyme fitness (log ratio)
1,GACCAAUCUGCCCUCAGAGCUCGAGAACAUCUUCGGAUGCAGAGGAGGCAGGCUUCGGUGGAGCGAUAGCGCCAACGUCCUCAACCUCCAAUGCAACCCACCACAUGAUGAUGCCUGAAGAGCCUUGGUUUUUUG [C62A U96A],-1.77
2,GACCAAUCUGCCCUCAGAGCUCGAGAACAUCUUCGGAUGCAGAGGAGGCAGGCUUCGGUGGGGCGAUAGCGCCAACGUCCUCAACCUCCAAUGCAUCCCACCACAAGGUGAUGCAUGAAGAGACUUGGUUUUUUG [C62G U106A A108G C115A C123A],-5.43
3,GACCAAUCUGCCCUCAGAGCUCGAGAACAUCUUCGGAUGCAGAGGAGGCAGGCUUCGGUGGUGCGUUAGCGCGAACGUCCUCAACCUCCAAUGCAUCCCACCAUAUGAUGACGCCUGAAGAGCCUUGGUUUUUUG [C62U A66U C73G C104U U112C],-1.37
4,GACCAAUCUGCCCUCAGAGCUCGAGAACAUCUUCGGAUGCAGAGGAGGCAGGCUUCGGUGGAGCGAUAGCGCCAACGUCCUCAACCUCCAAUGCAUCCCACCACAUGAUGAUGCCUGAAGAGCCUUGAUUUUUUG [C62A G128A],-2.62
5,GACCAAUCUGCCCUCAGAGCUCGAGAACAUCUUCGGAUGCAGAGGAGGCAGGCUUCGGUGGGGCGAUAGCGCCAACGUCCUCAACCUCCAAUGCAUCCCACCACAUGAUGAUGCCUGAAGAGCCUUGGUUUUAUG [C62G U133A],-1.22
6,GACCAAUCUGCCCUCAGAGCUCGAGAACAUCUUCGGAUGCAGAGGAGGCAGGCUUCGGUGGGGCGAUAGCGCCAACGUCCUCAACCUCCAAUGCAUCCCCCCACAUGAUGAUGCCUGAAGAGCCUUGGUUUUUUG [C62G A100C],-3.47
7,GACCAAUCUGCCCUCAGAGCUCGAGAACAUCUUCGGAUGCAGAGGAGGCAGGCUUCGGUGGGGCGAUAGCGCCAACGUCCUCAACCUCCAAUGCAUCCCACCACAUGAUGAUGCCUUAAGAGCCUUGGUUUUUUG [C62G G117U],-3.34
8,GACCAAUCUGCCCUCAGAGCUCGAGAACAUCUUCGGAUGCAGAGGAGGCAGGCUUCGGUGGGGCGAUAGCGCCAACGUCCUCAACCUCCAAUGCAUCCCACCACAUGAUGAUGCCUCAAGAGCCUUGGUUUUUUG [C62G G117C],-5.09
9,GACCAAUCUGCCCUCAGAGCUCGAGAACAUCUUCGGAUGCAGAGGAGGCAGGCUUCGGUGGGGCGAUAGCGCCAACGUCCUCAACCUCCAAUGCAUCCCACCACAAGAUGAUGCCUGAAGAGCCUUGGUUUUUUG [C62G U106A],-1.16
10,GACCAAUCUGCCCUCAGAGCUCGAGAACAUCUUCGGAUGCAGAGGAGGCAGGCUUCGGUGGAGCGAUAGCGCCAACGUCCUCAACCUCCAAUGCAUCCCACCACAUGAUGAUGCCUGAAGAGCCUGGGUUUUUUG [C62A U126G],-2.4
11,GACCAAUCUGCCCUCAGAGCUCGAGAACAUCUUCGGAUGCAGAGGAGGCAGGCUUCGGUGGGGCGAUAGCGCCAACGGCCUCAACCUGCAAUGCAUCCCACCACAUGAUGAUGCCUGAAGAGCCUUGGUUUUUUG [C62G U78G C88G],-3.52
12,GACCAAUCUGCCCUCAGAGCUCGAGAACAUCUUCGGAUGCAGAGGAGGCAGGCUUCGGUGGGGCGAUAGCGCCAACGUCCUCAACCUCCAAUGCAUCCCACCACAUGAUGAUGCCUGAAGAGACUUGGUUUUUUG [C62G C123A],-1.01
13,GACCAAUCUGCCCUCAGAGCUCGAGAACAUCUUCGGAUGCAGAGGAGGCAGGCUUCGGUGGAGCGAUAGCGCCAACGUCCUCAACCUCCAAUGCAUCCCACCACAUGAUGAUGCCUGAAGAGCCUUCGUUUUUUG [C62A G127C],-1.29
14,GACCAAUCUGCCCUCAGAGCUCGAGAACAUCUUCGGAUGCAGAGGAGGCAGGCUUCGGUGGGGCGAUAGCGCCAACGUCCUCAACCUCUAAUGCAUCCCACCACAUGAUGCUGCCUGAAGAGCCUCGGCUUUUUG [C62G C89U A111C U126C U129C],-4.44
15,GACCAAUCUGCCCUCAGAGCUCGAGAACAUCUUCGGAUGCAGAGGAGGCAGGCUUCGGUGGAGCGAUAGCGCCAACGUCCUCAACCUCCAAUGCAUCCCACCACAUGAUGAUGCCUGAAGAGCCUUGGUGUUAUG [C62A U130G U133A],-1.17
16,GACCAAUCUGCCCUCAGAGCUCGAGAACAUCUUCGGAUGCAGAGGAGGCAGGCUUCGGUGGAGCGAUAGCGCCAACGUCCUCAACCUCCAAUGCAUCCCACCACAUGAUGAUGCCUGAAGAGCCUUGGAUUUUUG [C62A U129A],-2.21
17,GACCAAUCUGCCCUCAGAGCUCGAGAACAUCUUCGGAUGCAGAGGAGGCAGGCUUCGGUGGGGCGAUAGCGCCAACGUCCUCAACCUCCAAUGCAUCCCACCACAUGAUGAUCCCUGAAGAGCCUUGGUUUUUUG [C62G G113C],-4.48
18,GACCAAUCUGCCCUCAGAGCUCGAGAACAUCUUCGGAUGCAGAGGAGGCAGGCUUCGGUGGAGCGAUAGCGCCAACGUCCUCAACCUCCAAUGCAUCCCACCACAUGAUGAUGCCUGAAGAGCCUUGGUGUUUUG [C62A U130G],-1.46
19,GACCAAUCUGCCCUCAGAGCUCGAGAACAUCUUCGGAUGCAGAGGAGGCAGGCUUCGGUGGGGCGAUAGCGCCAACGUCCUCAACCUCCAAUGCAUCCCACCACAUGAUGAUGCUUGAAGAUCCUUGGUUUUUUG [C62G C115U G122U],-5.8
20,GACCAAUCUGCCCUCAGAGCUCGAGAACAUCUUCGGAUGCAGAGGAGGCAGGCUUCGGUGGUGCGGUAGCGCCAACGUCCUCAACCUCCAAUGCAUCCCUCCACAUGAUGAUGCCUGAAGAGCCUUGGUUUUUUG [C62U A66G A100U],-2.66
21,GACCAAUCUGCCCUCAGAGCUCGAGAACAUCUUCGGAUGCAGAGGAGGCAGGCUUCGGUGGGGCGAUAGCGCCAACGUCCUCAACCUCCAAAGCAUCCCACCACAUGAUGAUGCCUGAAGAGCCUUGGUUUUUUG [C62G U92A],-5.63

row,Variant,polymerase ribozyme fitness (log ratio)
1,GACCAAUCUGCCCUCAGAGCUCGAGAACAUCUUCGGAUGCAGAGGAGGCAGGCUUCGGUGGAGCGAUAGCGCCAACGCCCUCAACCUCCAAUGCAUCCCACCACAUGAUGAUGCCUGAAGCGCCUUGGUUUUUUG [C62A U78C A121C],0.55
2,GACCAAUCUGCCCUCAGAGCUCGAGAACAUCUUCGGAUGCAGAGGAGGCAGGCUUCGGUGGGGCGAUAGCGCCAACGUCUUCAACCUCCAAUGCAUCCCACCACAUGAUGAUGCCUGAAGAGCCUUGGUUUUUUG [C62G C80U],-2.03
3,GACCAAUCUGCCCUCAGAGCUCGAGAACAUCUUCGGAUGCAGAGGAGGCAGGCUUCGGUGGAGCGAUAGCGCCAACGUCCUCAACCUCCAAUGCAUCCCACCACAUGAUGAUGCCUGAAGAGCCUUGGUUUUUUU [C62A G135U],-1.52
4,GACCAAUCUGCCCUCAGAGCUCGAGAACAUCUUCGGAUGCAGAGGAGGCAGGCUUCGGUGGAGCGAUAGCGCCAACGUCCUCAACCUCCAAUGCAUCCCACCACAUGAUGAUGCCUGAAGAGCCUUGGUUUUUUC [C62A G135C],-0.579
5,GACCAAUCUGCCCUCAGAGCUCGAGAACAUCUUCGGAUGCAGAGGAGGCAGGCUUCGGUGGGGCGAUAGCGCCAACGUCCUCAACCUCCAAUGCAUCCCACCACAUGAUAAUGCCUGAAGAGCCUGGGUUUUUUG [C62G G110A U126G],-5.29
6,GACCAAUCUGCCCUCAGAGCUCGAGAACAUCUUCGGAUGCAGAGGAGGCAGGCUUCGGUGGGGCGAUAGCGCCAACGUCCUCAACCUCCAAUGCAUCCCACCACAUGAUGAUGCCUGAAGAGCCUUGGUUUAUUG [C62G U132A],-0.911
7,GACCAAUCUGCCCUCAGAGCUCGAGAACAUCUUCGGAUGCAGAGGAGGCAGGCUUCGGUGGGGCGAUAGCGCCAACGACCUCAACCUCCAAUGCAUCCCACCACAAGAUGAUGCCUGAAGAGCCUUGGUUUUUUG [C62G U78A U106A],-1.75
8,GACCAAUCUGCCCUCAGAGCUCGAGAACAUCUUCGGAUGCAGAGGAGGCAGGCUUCGGUGGAGCGAUAGCGCCAACGUCCUCAACCUCCAAUGCAUCCCACCACAUGAUGAAGCCUGAAGAGGCUUGGUUUUUUG [C62A U112A C123G],-1.31
9,GACCAAUCUGCCCUCAGAGCUCGAGAACAUCUUCGGAUGCAGAGGAGGCAGGCUUCGGUGGGGCGAUAGCGCCAACGUCCUCAACCUCCAAUGCAUCCCACCACAUGAUCAUGCCUGAAGAGCCUUGGUUUUUUG [C62G G110C],-6.06
10,GACCAAUCUGCCCUCAGAGCUCGAGAACAUCUUCGGAUGCAGAGGAGGCAGGCUUCGGUGGGGCGAUAGCGCCACCGUCCUCAACCUCCAAUGCAUCCCACCACAUGAUGAUGCCUGUAGAGACUUGGUUUUUUU [C62G A75C A118U C123A G135U],-2.3
11,GACCAAUCUGCCCUCAGAGCUCGAGAACAUCUUCGGAUGCAGAGGAGGCAGGCUUCGGUGGGGCGAUAGCGCCAACGUCCUCAACCUCCAAUGCAUCCCACCACAUGAUGAAGCCUGAAGAGCCUUGGUUUUUUG [C62G U112A],-0.878
12,GACCAAUCUGCCCUCAGAGCUCGAGAACAUCUUCGGAUGCAGAGGAGGCAGGCUUCGGUGGGGCGAUAGCGCCAACGUCCUCAACCUCCUAUGCAUCCCACCACAUGAUGAUGCCUGAAGAGCCUUGGUUUUUUG [C62G A90U],-3.82
13,GACCAAUCUGCCCUCAGAGCUCGAGAACAUCUUCGGAUGCAGAGGAGGCAGGCUUCGGUGGGGCGAUAGCGUCAACGUCCUCAACCUCCAAUGCAUCCCACCACAUGAUGAUGCCUGAAGAGCCUUGGUUUUUUG [C62G C72U],-2.53
14,GACCAAUCUGCCCUCAGAGCUCGAGAACAUCUUCGGAUGCAGAGGAGGCAGGCUUCGGUGGAGCGAUAGCGCCAACGUCCUCAACCUCCAAUGCAGCCCACCACAUGAUGAUCCCUGAAGAGGCUUGGUUUUAUG [C62A U96G G113C C123G U133A],-3.2
15,GACCAAUCUGCCCUCAGAGCUCGAGAACAUCUUCGGAUGCAGAGGAGGCAGGCUUCGGUGGAGCGAUAGCGCCAACGUCCUCAACCACCAAUGCAUCCCCCCACAUGAUGAUGCAUGAAGAGCCUUGGUUUUUUG [C62A U87A A100C C115A],-2.71
16,GACCAAUCUGCCCUCAGAGCUCGAGAACAUCUUCGGAUGCAGAGGAGGCAGGCUUCGGUGGGGCGAUAGCGCCAACGUCCUCAACCUCCUAUGCAUCCCACCACAUGAUGAAGCGUGAAGAGCUUUGGUUUUCUG [C62G A90U U112A C115G C124U U133C],-5.24
17,GACCAAUCUGCCCUCAGAGCUCGAGAACAUCUUCGGAUGCAGAGGAGGCAGGCUUCGGUGGGGCGAUAGCGCCAACGUCCUCAACCUCCAAUGCAUCCCACCACAUGAUGAUGUCUGAAGAGCCUUGGUUUUUUG [C62G C114U],-4.41
18,GACCAAUCUGCCCUCAGAGCUCGAGAACAUCUUCGGAUGCAGAGGAGGCAGGCUUCGGUGGGGCGAUAGCGCCAACGUCCUCAACCUCCAAUGCAUCCCACCACAUGAUGAUGCGUGAAGAGCCAUGGUUUUUUG [C62G C115G U125A],-3.31
19,GACCAAUCUGCCCUCAGAGCUCGAGAACAUCUUCGGAUGCAGAGGAGGCAGGCUUCGGUGGGGCGAUAGCGCCAACGUCCUCAACCUCCAAUGCGUCCCACCACAUGAUGAUGCCUGAAGAGCCUUGGUUUCUUG [C62G A95G U132C],-1.55
20,GACCAAUCUGCCCUCAGAGCUCGAGAACAUCUUCGGAUGCAGAGGAGGCAGGCUUCGGUGGGGCGAUAGCGCCAACGUCCUCAACAUCCAAUGCAUCCCACCACAUGAUGAUGCCUGAAGAGCCUUGGUUUUUUG [C62G C86A],-3.17
21,GACCAAUCUGCCCUCAGAGCUCGAGAACAUCUUCGGAUGCAGAGGAGGCAGGCUUCGGUGGAGCGAUAGCGCCAACGGCCUCAACCUCCAAUGCAUCCCACCACAUGAUGAUGCCUGAAGAGCCUUGGUUUUUUG [C62A U78G],-2.46
